Results reported in patent publication US20170173114A1, “METHODS AND COMPOSITIONS FOR INDUCTION OF UCP1 EXPRESSION” (Joslin Diabetes Center, Inc., priority 2014, published 2017).
“Also recorded” adds a separate entry of the source.

Tests used:
[1] = test system: WT-1 murine brown preadipocytes; experiment: Oil Red O staining of lipid accumulation in WT-1 cells; format: cell-based; settings: WT-1, absence of induction cocktail
Description: Cell culture dishes were washed twice with phosphate-buffered saline and fixed with 10% buffered formalin overnight at 4° C. Cells were then stained for 2 hours at room temperature with a filtered oil red O solution (0.5% oil red O in isopropyl alcohol), washed twice with distilled water, and visualized.
The effect of FGF6 on differentiation of WT-1 murine brown preadipocytes was also examined. WT-1 cells can be induced to undergo brown adipocyte differentiation, characterized by lipid accumulation and expression of adipogenic and brown fat markers, as described above (Klein et al. (1999) J Biol Chem 274:34795; Tseng et al. (2005) Nat Cell Biol 7:601). WT-1 cells were treated with FGF6 in growth media (DMEM+10% FBS), a vehicle control (“control” or “C” referred to in FIGS. 3A-D), or induction media (“induction” or “I” referred to in FIGS. 3A-D) as described above for seven days. Following the treatment, cells were examined for the color of the culture media in combination with oil Red O staining, expression of adipogenic markers, expression of brown fat markers, immunofluorescent staining of cells with UCP1 and DPAI, and Western blot analysis to determine the presence of UCP1 and β-tubulin. The results are described in FIGS. 3A to 3D.

[2] = test system: 3T3-F442A white preadipocytes; experiment: Seahorse Bioanalyzer cellular respiration in 3T3-F442A white preadipocytes; format: cell-based; settings: constitutive overexpression of FGF6
Text: The Seahorse XF24 (Seahorse Bioscience, http://www.seahorsebio.com/) was utilized for respirometry to measure oxygen consumption rates (OCR; indicating oxidative phosphorylation) and extracellular acidification rates (ECAR; indicating extracellular pH) in mature brown adipocytes. The cell plates and assay cartridges for the Seahorse XF24 have four ports allowing for drug delivery to individual wells during measurement of the metabolic parameters. For a typical bioenergetic profile, cells are first treated with oligomycin to block ATP synthase, FCCP as an uncoupler and Rotenone to block Complex 1 of the ETC (all from Sigma). Example 2 provides additional details regarding the general method. Data provided in the Figures (e.g., FIG. 27) based on the Seahorse Bioanalyzer includes a bottom horizontal line which represents the baseline of the mechanics of the machine and is not related to the experiment.
To assess FGF6's role in the regulation of mitochondrial activity, FGF6 was stably expressed in WT-1 brown preadipocytes and 3T3-F442A white preadipocytes. Stable cells were generated by viral infection followed by drug selection.
A profile of cellular respiration was developed by utilizing well-characterized mitochondrial toxins, as described in FIG. 5B. First, basal respiration was measured, followed by injection of oligomycin (an inhibitor of ATP synthase which allows measurement of ATP turnover). Then, the uncoupler FCCP (carbonilcyanide p-triflouromethoxyphenylhydrazone) was injected to measure respiratory capacity, followed by the complex 1 inhibitor rotenone (which prevents electron transfer activity and leaves only non-mitochondrial activity to be measured).
As mentioned above, 3T3-F442A white preadipocytes were also used to determine FGF6's role in mitochondrial activity regulation.

WT-1 brown preadipocytes = experiment: Mitochondrial DNA copy number and mitochondrial gene expression in brown preadipocytes; format: cell-based, murine; settings: 24 hours; vs control
Description: In order to determine whether the marked changes in mitochondrial respiration observed in preadipocytes treated with FGF6 is due to increased mitochondrial mass and/or changes in mitochondrial dynamics, in addition to increased UCP1 expression, mitochondrial DNA (mtDNA) copy number (as the ratio of CoxII (mtDNA) over β-globin (nuclear DNA)) and expression of genes involved in mitochondrial replication (e.g., mTFA, Nrf1 and Nrf2) in brown preadipocytes was measured.

B1: FGF6: fibroblast growth factor 6; recombinant human FGF from R&D Systems, or mouse FGF6 cDNA overexpressed by lentiviral vector (protein)
chain: KRQRRLYCNVGIGFHLQVLPDGRISGTHEENPYSLLEISTVERGVVSLFGVRSALFVAMNSKGRLYATPSFQEECKFRETLLPNNYNAYESDLYQGTYIALSKYGRVKRGSKVSPIMTVTHFLPRI
lipid accumulation by Oil Red O staining [1]: very little to no lipid accumulation
gain of ATP turnover [2]: 5 fold
gain of proton leak [2]: 5 fold
increase in cellular respiration [2]: 5-10 fold
increase of basal respiration [2]: ~7 fold
increase of maximal respiratory capacity [2]: ~6 fold
expression of nuclear-encoded mitochondrial genes (WT-1 brown preadipocytes): not significantly altered
mitochondrial DNA copy number (CoxII over β-globin) (WT-1 brown preadipocytes): no significant difference; also recorded: does not alter
